Measurements: the supplement of paper PMC11246515
± gives the standard deviation of the averaged measurements.

Experiment: total protein half-life in vivo (active degradation + dilution); higher = more stable protein
[1] = E. coli NCM3722 delta-clpP delta-lon delta-hslV, growth: N-lim chemostat, doubling time 6 h
[2] = E. coli NCM3722 delta-clpP, growth: N-lim chemostat, doubling time 6 h
[3] = E. coli NCM3722 delta-hslV, growth: N-lim chemostat, doubling time 6 h
[4] = E. coli NCM3722 delta-lon, growth: N-lim chemostat, doubling time 6 h
[5] = E. coli NCM3722 delta-smpB, growth: N-lim chemostat, doubling time 6 h
[6] = wild type E. coli NCM3722, growth: C-lim chemostat, doubling time 3 h
[7] = wild type E. coli NCM3722, growth: C-lim chemostat, doubling time 6 h
[8] = wild type E. coli NCM3722, growth: C-lim chemostat, doubling time 12 h
[9] = wild type E. coli NCM3722, growth: N-lim chemostat, doubling time 6 h
[10] = wild type E. coli NCM3722, growth: N-lim chemostat, doubling time 12 h
[11] = wild type E. coli NCM3722, growth: P-lim chemostat, doubling time 6 h
[12] = wild type E. coli NCM3722, growth: P-lim chemostat, doubling time 12 h

MASKFQNRLVGTIVLVALGVIVLPGLLDGQKKHYQDEFAAIPLVPKAGDRDEPDMMPAATQALPTQPPEGAAEEVRAGDAAAPSLDPATIAANNTEFEPEPAPVAPPKPKPVEPPKPKVEAPPAPKPEPKPVVEEKAAPTGKAYVVQLGALKNADKVNEIVGKLRGAGYRVYTSPSTPVQGKITRILVGPDASKDKLKGSLGELKQLSGLSGVVMGYTPN
total protein half-life in vivo [1]: 4.2 ± 0.25 h | total protein half-life in vivo [2]: 5.15 ± 2.6 h | total protein half-life in vivo [3]: 3.72 ± 0.18 h | total protein half-life in vivo [4]: 3.63 ± 0.44 h | total protein half-life in vivo [5]: 3.52 ± 0.13 h | total protein half-life in vivo [6]: 2.45 ± 0.036 h | total protein half-life in vivo [7]: 3.46 ± 0.32 h | total protein half-life in vivo [8]: 6.92 ± 0.23 h | total protein half-life in vivo [9]: 3.32 ± 0.14 h | total protein half-life in vivo [10]: 5.77 ± 1.7 h | total protein half-life in vivo [11]: 2.83 ± 0.55 h | total protein half-life in vivo [12]: 5.38 ± 0.026 h

MASVSISCPSCSATDGVVRNGKSTAGHQRYLCSHCRKTWQLQFTYTASQPGTHQKIIDMAMNGVGCRATARIMGVGLNTILRHLKNSGRSR [P0CF07]
total protein half-life in vivo [1]: 2.96 h | total protein half-life in vivo [12]: 2.5 h

MATHERRVVFFDLDGTLHQQDMFGSFLRYLLRRQPLNALLVLPLLPIIAIALLIKGRAARWPMSLLLWGCTFGHSEARLQTLQADFVRWFRDNVTAFPLVQERLTTYLLSSDADIWLITGSPQPLVEAVYFDTPWLPRVNLIASQIQRGYGGWVLTMRCLGHEKVAQLERKIGTPLRLYSGYSDSNQDNPLLYFCQHRWRVTPRGELQQLE [P0AD42]
total protein half-life in vivo [1]: 3.86 ± 0.9 h | total protein half-life in vivo [2]: 2.84 h | total protein half-life in vivo [3]: 2.383 ± 0.018 h | total protein half-life in vivo [4]: 2.07 h | total protein half-life in vivo [5]: 2.7 ± 0.1 h | total protein half-life in vivo [6]: 2.27 h | total protein half-life in vivo [7]: 3.96 h | total protein half-life in vivo [8]: 9.2 ± 0.12 h | total protein half-life in vivo [9]: 2.62 ± 0.42 h | total protein half-life in vivo [10]: 4.48 ± 0.64 h | total protein half-life in vivo [11]: 1.82 h | total protein half-life in vivo [12]: 3.39 h

MATHFARGILTEGHLISVRLPSQCHQEARNIPPHRQSRFLASRGLLAELMFMLYGIGELPEIVTLPKGKPVFSDKNLPSFSISYAGNMVGVALTTEGECGLDMELQRATRGFHSPHAPDNHTFSSNESLWISKQNDPNEARAQLITLRRSVLKLTGDVLNDDPRDLQLLPIAGRLKCAHVNHVEALCDAEDVLVWSVAVTPTIEKLSVWELDGKHGWKSLPDIHSRANNPTSRMMRFAQLSTVKAFSPN [P0ADM8]
total protein half-life in vivo [2]: 4.2 ± 0.51 h | total protein half-life in vivo [3]: 3.24 ± 1.1 h | total protein half-life in vivo [4]: 2.271 ± 0.01 h | total protein half-life in vivo [5]: 2.5 ± 0.27 h | total protein half-life in vivo [7]: 3.36 ± 0.66 h | total protein half-life in vivo [8]: 6.92 ± 0.22 h | total protein half-life in vivo [9]: 2.12 ± 0.18 h | total protein half-life in vivo [10]: 3.63 ± 0.21 h | total protein half-life in vivo [11]: 3.22 ± 0.14 h | total protein half-life in vivo [12]: 5.24 ± 0.93 h

MATIHVDGKEYEVNGADNLLEACLSLGLDIPYFCWHPALGSVGACRQCAVKQYQNAEDTRGRLVMSCMTPASDGTFISIDDEEAKQFRESVVEWLMTNHPHDCPVCEEGGNCHLQDMTVMTGHSFRRYRFTKRTHRNQDLGPFISHEMNRCIACYRCVRYYKDYADGTDLGVYGAHDNVYFGRPEDGTLESEFSGNLVEICPTGVFTDKTHSERYNRKWDMQFAPSICQQCSIGCNISPGERYGELRRIENRYNGTVNHYFLCDRGRFGYGYVNLKDRPRQPVQRRGDDFITLNAEQAMQGAADILRQSKKVIGIGSPRASVESNFALRELVGEENFYTGIAHGEQERLQLALKVLREGGIYTPALREIESYDAVLVLGEDVTQTGARVALAVRQAVKGKAREMAAAQKVADWQIAAILNIGQRAKHPLFVTNVDDTRLDDIAAWTYRAPVEDQARLGFAIAHALDNSAPAVDGIEPELQSKIDVIVQALAGAKKPLIISGTNAGSLEVIQAAANVAKALKGRGADVGITMIARSVNSMGLGIMGGGSLEEALTELETGRADAVVVLENDLHRHASAIRVNAALAKAPLVMVVDHQRTAIMENAHLVLSAASFAESDGTVINNEGRAQRFFQVYDPAYYDSKTVMLESWRWLHSLHSTLLSREVDWTQLDHVIDAVVAKIPELAGIKDAAPDATFRIRGQKLAREPHRYSGRTAMRANISVHEPRQPQDIDTMFTFSMEGNNQPTAHRSQVPFAWAPGWNSPQAWNKFQDEVGGKLRFGDPGVRLFETSENGLDYFTSVPARFQPQDGKWRIAPYYHLFGSDELSQRAPVFQSRMPQPYIKLNPADAAKLGVNAGTRVSFSYDGNTVTLPVEIAEGLTAGQVGLPMGMSGIAPVLAGAHLEDLKEAQQ
total protein half-life in vivo [1]: 6.02 ± 0.15 h | total protein half-life in vivo [2]: 5.98 ± 0.38 h | total protein half-life in vivo [3]: 6.1 ± 0.34 h | total protein half-life in vivo [4]: 5.92 ± 0.37 h | total protein half-life in vivo [5]: 5.61 ± 0.29 h | total protein half-life in vivo [6]: 3.14 ± 0.12 h | total protein half-life in vivo [7]: 5.723 ± 0.011 h | total protein half-life in vivo [8]: 10.3 ± 0.23 h | total protein half-life in vivo [9]: 5.63 ± 0.15 h | total protein half-life in vivo [10]: 11 ± 0.17 h | total protein half-life in vivo [11]: 5.72 ± 0.076 h | total protein half-life in vivo [12]: 10.25 ± 0.082 h

MATKLQDGNTPCLAATPSEPRPTVLVFDSGVGGLSVYDEIRHLLPDLHYIYAFDNVAFPYGEKSEAFIVERVVAIVTAVQERYPLALAVVACNTASTVSLPALREKFDFPVVGVVPAIKPAARLTANGIVGLLATRGTVKRSYTHELIARFANECQIEMLGSAEMVELAEAKLHGEDVSLDALKRILRPWLRMKEPPDTVVLGCTHFPLLQEELLQVLPEGTRLVDSGAAIARRTAWLLEHEAPDAKSADANIAFCMAMTPGAEQLLPVLQRYGFETLEKLAVLG
total protein half-life in vivo [1]: 5.25 ± 0.28 h | total protein half-life in vivo [2]: 4.4 ± 0.08 h | total protein half-life in vivo [3]: 4.32 ± 0.48 h | total protein half-life in vivo [4]: 4.74 ± 0.2 h | total protein half-life in vivo [5]: 4.44 ± 0.14 h | total protein half-life in vivo [6]: 3.22 ± 0.32 h | total protein half-life in vivo [7]: 5.49 ± 0.17 h | total protein half-life in vivo [9]: 4.54 ± 0.11 h | total protein half-life in vivo [10]: 7.85 ± 0.034 h | total protein half-life in vivo [11]: 6.21 ± 0.3 h | total protein half-life in vivo [12]: 12.2 ± 0.2 h

MATLFIADLHLCVEEPAITAGFLRFLAGEARKADALYILGDLFEAWIGDDDPNPLHRKMAAAIKAVSDSGVPCYFIHGNRDFLLGKRFARESGMTLLPEEKVLELYGRRVLIMHGDTLCTDDAGYQAFRAKVHKPWLQTLFLALPLFVRKRIAARMRANSKEANSSKSLAIMDVNQNAVVSAMEKHQVQWLIHGHTHRPAVHELIANQQPAFRVVLGAWHTEGSMVKVTADDVELIHFPF
total protein half-life in vivo [1]: 5.85 ± 1.3 h | total protein half-life in vivo [2]: 5.94 ± 0.2 h | total protein half-life in vivo [3]: 6.87 ± 0.8 h | total protein half-life in vivo [5]: 5.781 ± 0.025 h | total protein half-life in vivo [6]: 3.14 ± 0.045 h | total protein half-life in vivo [8]: 13.1 ± 0.46 h | total protein half-life in vivo [9]: 6.36 ± 0.95 h | total protein half-life in vivo [10]: 12.4 ± 0.57 h | total protein half-life in vivo [11]: 6.49 ± 0.51 h | total protein half-life in vivo [12]: 12 ± 0.37 h

MATLIRLFIHPVKSMRGIGLTHALADVSGLAFDRIFMITEPDGTFITARQFPQMVRFTPSPVHDGLHLTAPDGSSAYVRFADFATQDAPTEVWGTHFTARIAPDAINKWLSGFFSREVQLRWVGPQMTRRVKRHNTVPLSFADGYPYLLANEASLRDLQQRCPASVKMEQFRPNLVVSGASAWEEDRWKVIRIGDVVFDVVKPCSRCIFTTVSPEKGQKHPAGEPLKTLQSFRTAQDNGDVDFGQNLIARNSGVIRVGDEVEILATAPAKIYGAAAADDTANITQQPDANVDIDWQGQAFRGNNQQVLLEQLENQGIRIPYSCRAGICGSCRVQLLEGEVTPLKKSAMGDDGTILCCSCVPKTALKLAR
total protein half-life in vivo [1]: 5.8 ± 0.31 h | total protein half-life in vivo [2]: 5.98 ± 1.1 h | total protein half-life in vivo [3]: 6.18 ± 1.1 h | total protein half-life in vivo [4]: 5.9 ± 0.56 h | total protein half-life in vivo [5]: 5.39 ± 0.28 h | total protein half-life in vivo [6]: 2.97 ± 0.61 h | total protein half-life in vivo [7]: 6.03 ± 0.76 h | total protein half-life in vivo [8]: 10.1 ± 0.74 h | total protein half-life in vivo [9]: 5.69 ± 0.15 h | total protein half-life in vivo [10]: 10.54 ± 0.032 h | total protein half-life in vivo [11]: 5.71 ± 0.41 h | total protein half-life in vivo [12]: 10.2 ± 1.8 h

MATLLQLHFAFNGPFGDAMAEQLKPLAESINQEPGFLWKVWTESEKNHEAGGIYLFTDEKSALAYLEKHTARLKNLGVEEVVAKVFDVNEPLSQINQAKLA [P0ACX3]
total protein half-life in vivo [1]: 5.41 ± 1.1 h | total protein half-life in vivo [2]: 3.68 ± 0.39 h | total protein half-life in vivo [3]: 3.94 ± 0.085 h | total protein half-life in vivo [4]: 5.96 ± 0.17 h | total protein half-life in vivo [5]: 4.07 ± 0.095 h | total protein half-life in vivo [6]: 3.22 ± 0.24 h | total protein half-life in vivo [7]: 4.809 ± 0.035 h | total protein half-life in vivo [8]: 8.79 ± 2.3 h | total protein half-life in vivo [9]: 3.27 ± 0.054 h | total protein half-life in vivo [10]: 5.75 ± 0.85 h | total protein half-life in vivo [11]: 4.79 ± 0.49 h | total protein half-life in vivo [12]: 10.1 ± 1.1 h
